Results: patent US20230406935A1 (F STAR THERAPEUTICS, published 2023)
Numbering of substitutions follows the chain as printed. Read-outs that look alike come from different tables or passages of the source.

B1: Fcab FS17-33 with LALA mutation (pTT5-FS17-33AA) (designed binder)
chain: TCPPCPAPEAAGGPSVFLFPPKPKDTLMISRTPEVTCVVVDVSHEDPEVKFNWYVDGVEVHNAKTKPREEQYNSTYRVVSVLTVLHQDWLNGKEYKCKVSNKALPAPIEKTISKAKGQPREPQVYTLPPSRDEQSGYWVSLTCLVKGFYPSDIAVEWESNGQPENNYKTTPPVLDSDGSFFLYSKLTVSNWRWQMGDFSCSVMHEALHNHYTQKSLSLSPGK
B2: Fcab FS17-33-37 with LALA mutation (designed binder)
chain: B1 chain with S135V, G196D
notes: also called FS17-33-37AA
B3: Fcab FS17-33-289 (designed binder)
chain: TCPPCPAPELLGGPSVFLFPPKPKDTLMISRTPEVTCVVVDVSHEDPEVKFNWYVDGVEVHNAKTKPREEQYNSTYRVVSVLTVLHQDWLNGKEYKCKVSNKALPAPIEKTISKAKGQPREPQVYTLPPSRDESGYWVSLTCLVKGFYPSDIVVEWESNGEPQYWAKTTPPVLDSDGSFFLYSKLTVSNWRWQLDDFSCSVMHEALHNHYTQKSLSLSPGK
B4: Fcab FS17-33-296 (designed binder)
chain: B3 chain with L194V
B5: Fcab FS17-33-288 (designed binder)
chain: B3 chain with L194I
B6: Fcab FS17-33-334 (designed binder)
chain: B3 chain with V153A
B7: FS17-33-488AA/MSL109 (bispecific antibody, human IgG1, kappa, L234A L235A)
heavy: EEQVLESGGGLVKPGGSLRLSCAASGFTFSPYSVFWVRQAPGKGLEWVSSINSDSTYKYYADSVKGRFTISRDNAENSIFLQMNSLRAEDTAVYYCARDRSYYAFSSGSLSDYYYGLDVWGQGTTVIVSSASTKGPSVFPLAPSSKSTSGGTAALGCLVKDYFPEPVTVSWNSGALTSGVHTFPAVLQSSGLYSLSSVVTVPSSSLGTQTYICNVNHKPSNTKVDKKVEPKSCDKTHTCPPCPAPEAAGGPSVFLFPPKPKDTLMISRTPEVTCVVVDVSHEDPEVKFNWYVDGVEVHNAKTKPREEQYNSTYRVVSVLTVLHQDWLNGKEYKCKVSNKALPAPIEKTISKAKGQPREPQVYTLPPSRDEEGYWVSLTCLVKGFYPSDIAVEWESNGEPQYWAKTTPPVPDSDGTFFLYSKLTVSNWRWQLGDAFSCSVMHEALRNHYTQKSLSLSPGK
light: DIVMTQSPLSLSVTPGEPASISCRSSQSLLHTNGYNYLDWYVQKPGQSPQLLIYLASNRASGVPDRFSGSGSGTDFTLKISRVETEDVGVYYCMQALQIPRTFGQGTKVEIKRTVAAPSVFIFPPSDEQLKSGTASVVCLLNNFYPREAKVQWKVDNALQSGNSQESVTEQDSKDSTYSLSSTLTLSKADYEKHKVYACEVTHQGLSSPVTKSFNRGEC
B8: FS17-33-288AA/HelD1.3 mock mAb^2 (bispecific antibody, human IgG1, kappa, L234A L235A)
heavy: QVQLQESGPGLVRPSQTLSLTCTVSGSTFSGYGVNWVRQPPGRGLEWIGMIWGDGNTDYNSALKSRVTMLVDTSKNQFSLRLSSVTAADTAVYYCARERDYRLDYWGQGSLVTVSSASTKGPSVFPLAPSSKSTSGGTAALGCLVKDYFPEPVTVSWNSGALTSGVHTFPAVLQSSGLYSLSSVVTVPSSSLGTQTYICNVNHKPSNTKVDKKVEPKSCDKTHTCPPCPAPEAAGGPSVFLFPPKPKDTLMISRTPEVTCVVVDVSHEDPEVKFNWYVDGVEVHNAKTKPREEQYNSTYRVVSVLTVLHQDWLNGKEYKCKVSNKALPAPIEKTISKAKGQPREPQVYTLPPSRDESGYWVSLTCLVKGFYPSDIVVEWESNGEPQYWAKTTPPVLDSDGSFFLYSKLTVSNWRWQIDDFSCSVMHEALHNHYTQKSLSLSPGK
light: DIQMTQSPASLSASVGETVTITCRASGNIHNYLAWYQQKQGKSPQLLVYNAKTLADGVPSRFSGSGSGTQYSLKINSLQPEDFGSYYCQHFWSTPRTFGGGTKLEIKRTVAAPSVFIFPPSDEQLKSGTASVVCLLNNFYPREAKVQWKVDNALQSGNSQESVTEQDSKDSTYSLSSTLTLSKADYEKHKVYACEVTHQGLSSPVTKSFNRGEC
notes: also called F17-33-288AA/HelD1.3; F17-33-288AA/HELD1.3
B9: FS17-33-334AA/HelD1.3 mock mAb^2 (bispecific antibody, human IgG1, kappa, L234A L235A)
heavy: B8 heavy with V376A, I417L
light: B8 light

Columns and labels:
[1] = molecular target: T1, Human PD-L1 expressed on cells (human, UniProt Q9NZQ7 19-290); assay: cell-based blocking of biotinylated PD-1 Fc binding to HEK 293 hPD-L1 cells, flow cytometry
T1 construct: also called cell-surface human PD-L1; hPD-L1
T1 sequence (Q9NZQ7 19-290 limits assumed): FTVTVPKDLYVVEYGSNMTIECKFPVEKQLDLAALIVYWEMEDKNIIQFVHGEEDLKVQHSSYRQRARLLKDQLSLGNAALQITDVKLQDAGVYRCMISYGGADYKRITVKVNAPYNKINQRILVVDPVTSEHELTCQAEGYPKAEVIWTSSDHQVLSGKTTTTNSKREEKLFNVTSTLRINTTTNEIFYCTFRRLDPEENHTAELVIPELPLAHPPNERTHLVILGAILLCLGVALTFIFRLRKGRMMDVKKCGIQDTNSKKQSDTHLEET
Description: The blocking activity of the clones produced in Example 2.2.1 was analysed in a cell-based assay using HEK 293 cells overexpressing human PD-L1 (see 1.5 for development of the cell line). Briefly, HEK 293 cells expressing human PD-L1 were seeded at 1×10⁵ cells per well in a V-bottom 96-well plate in PBS. […] The plates were centrifuged at 1500 rpm for 3 minutes at 4° C. to pellet the cells. […] The plates were centrifuged at 1500 rpm for 3 minutes at 4° C. to pellet the cells, supernatant was discarded and the cells were resuspended in PBS. Streptavidin conjugated to Alexa 488 was diluted 1:1000 in PBS and 100 μl was added to the wells for 30 minutes at 4° C. The plates were centrifuged at 1500 rpm for 3 minutes at 4° C. to pellet the cells, supernatant discarded and the cells were resuspended in PBS with DAPI. The plate was read on FACS Canto (BD Bioscience) and the data analysed using FlowJoX.

[2] = molecular target: T2, Monomeric His-tagged human PD-L1 (Acro biosystems PD1-H5229) (human, UniProt Q9NZQ7 19-238); assay: SPR Biacore, captured on protein A, monomeric PD-L1-his in flow, 1:1 fit
T2 construct: also called hPD-L1-his; PD-L1-his
T2 sequence (Q9NZQ7 19-238 limits assumed): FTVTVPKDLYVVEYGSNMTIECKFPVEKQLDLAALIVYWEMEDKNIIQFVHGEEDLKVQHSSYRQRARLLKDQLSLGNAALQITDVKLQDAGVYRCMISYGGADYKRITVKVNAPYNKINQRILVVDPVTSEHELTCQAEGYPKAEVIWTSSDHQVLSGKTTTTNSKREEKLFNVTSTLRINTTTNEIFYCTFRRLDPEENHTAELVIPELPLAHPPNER
Description: The monomeric PD-L1-his human antigen was flowed over the chip in titrating concentrations at a high flow rate to minimise mass transport limitations. The KDS were measured using a 1:1 fitting analysis with no refractive index correction and Rₘₐₓ set to local.

[3] = molecular target: T3, Biotinylated hPD-L1-Fc-Avi (human, UniProt Q9NZQ7 19-238); assay: cell-based RBA, blocking of hPD-L1-Fc-Avi binding to HEK293 hCD80 cells
T3 sequence (Q9NZQ7 19-238 limits assumed): as above
Description: (§1) The ability of the Fcabs and mock mAb² to block hPD-1/hPD-L1 and hPD-L1/hCD80 interactions was tested in cell-based Receptor Binding Assays (RBA). […] The mix was incubated for another hour with HEK293 cells overexpressing either hPD-1 or hCD80.

[4] = molecular target: T3, Biotinylated hPD-L1-Fc-Avi; assay: cell-based RBA, blocking of hPD-L1-Fc-Avi binding to HEK293 hPD-1 cells
Description: as §1

[5] = molecular target: T1, Human PD-L1 expressed on cells; assay: flow cytometry, HEK293 cells overexpressing the target, anti-human Fc 488
Description: (§2) Cell binding assays were performed by incubating Fcabs or mAb² proteins with either control HEK293 cells or HEK293 cells overexpressing hPD-L1 or cynomolgus PD-L1 cells for 1 hour at 4° C. Fcab/mAb binding was subsequently detected using an anti-human Fc 488 detection antibody. Fluorescent signal intensities were measured using a FACS canto.

[6] = molecular target: T4, Cynomolgus PD-L1 expressed on HEK 293 cells (cynomolgus, UniProt Q9NZQ7 19-290 (human entry)); assay: as above
T4 construct: also called cell-expressed cynomolgus PD-L1
T4 sequence (Q9NZQ7 other isoform, or with tags, fused parts or gaps limits assumed): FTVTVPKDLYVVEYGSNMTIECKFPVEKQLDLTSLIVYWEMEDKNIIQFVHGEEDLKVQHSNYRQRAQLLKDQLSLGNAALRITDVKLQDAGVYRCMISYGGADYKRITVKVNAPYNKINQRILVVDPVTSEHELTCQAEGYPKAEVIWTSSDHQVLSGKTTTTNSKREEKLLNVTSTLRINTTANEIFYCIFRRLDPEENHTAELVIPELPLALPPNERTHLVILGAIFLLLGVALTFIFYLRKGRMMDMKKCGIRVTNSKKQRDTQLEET
Description: as §2

[7] = molecular target: T2, Monomeric His-tagged human PD-L1 (Acro …); assay: SPR Biacore T200, Fcab captured on protein A chip, monomeric antigen in flow, 1:1 fit
[8] = molecular target: T5, Monomeric cynomolgus PD-L1 (Acro Biosciences PD1-C52H4) (cynomolgus, UniProt Q9NZQ7 19-238 (human entry)); assay: as above
T5 construct: also called cynomolgus monomeric PD-L1
T5 sequence (Q9NZQ7 other isoform, or with tags, fused parts or gaps limits assumed): as the sequence (Q9NZQ7 19-238 limits assumed) above, with A33T, A34S, S62N, R68Q, Q82R, F173L, T185A, T192I, H215L counted along it

[9] = molecular target: T1, Human PD-L1 expressed on cells; assay: cell-based or functional assay
[10] = molecular target: T2, Monomeric His-tagged human PD-L1 (Acro …); assay: SPR Biacore T200 as Example 5.1, anti-Fab capture, monomeric hPD-L1-his
Description: Fcab and mAb² binding to human PD-L1 was assessed by both BIAcore and in a cell binding assay. To measure the affinity of the clones to monomeric hPD-L1-his, the mAb² were captured using an anti-Fab antibody coated on a CM5 chip (GE 28-9582-20 AC) and Fcabs were captured using a Protein A chip (GE 29127556) using a Biacore T200 (GE). To minimize mass transport effects, the capture level was minimized to 200RU and a fast flow rate of 75 μl/min was used. […] The analysis of the data was done using the Biacore T200 evaluation software. Curves subtracted against a blank flow cell and a run with no antigen were analysed using a 1:1 fitting model with no bulk analysis and Rmax analysed locally.
The selected CH3 domain sequences were subcloned and expressed in “mock” (MSL109) mAb² format with the LALA mutation in the CH2 domain, as described in Example 4.2.1, for further screening.

[11] = molecular target: T1, Human PD-L1 expressed on cells; assay: cell-based or functional assay; remark: listed apart in the source
[12] = molecular target: T2, Monomeric His-tagged human PD-L1 (Acro …); assay: SPR Biacore T200, mAb^2 captured by anti-Fab on CM5, monomeric antigen in flow, 1:1 fit
[13] = molecular target: T5, Monomeric cynomolgus PD-L1 (Acro …); assay: as above
[14] = molecular target: T1, Human PD-L1 expressed on cells; assay: cell-based or functional assay; remark: listed apart in the source
[15] = molecular target: T2, Monomeric His-tagged human PD-L1 (Acro …); assay: off-rate, binding to hPD-L1, mock mAb^2; instrument not stated
[16] = molecular target: T2, Monomeric His-tagged human PD-L1 (Acro …); assay: off-rate on PD-L1, mock mAb^2; instrument not given

Binder	EC50 [3] [nM]	EC50 [4] [nM]	Kd [5] [nM]	Kd [6] [nM]	Kd [7] [nM]	Kd [8] [nM]	further results
B1	–	–	–	–	–	–	IC50 [1]: 17.7 nM
B2	–	–	–	–	–	–	Kd [2]: 270 nM; koff [2]: 0.02 s⁻¹; kon [2]: 76000 M⁻¹ s⁻¹; IC50 [1]: 8.1 nM
B3	9.2	10.1	1	0.44	0.54	0.66	–
B4	8.8	9	1	0.5	0.73	0.87	–
B5	0.79	2.8	2.5	2.6	1.6	2.1	–
B6	0.55	0.99	2.06	0.68	1.93	2.18	–
B7	–	–	–	–	–	–	DO11.10 EC50 [9]: 3.25 nM; Kd [10]: 0.36 nM; koff [10]: 0.00036 s⁻¹
B8	–	–	15.2	7.8	–	–	DO11.10 T cell activation assay EC50 [11]: 0.428 nM; Kd [12]: 1.43 nM; Kd [13]: 2 nM
B9	–	–	8.9	0.91	–	–	DO11.10 EC50 [14]: 0.403 nM; DO11.10 T cell activation assay EC50 [11]: 0.934 nM; koff [15]: 0.000291 s⁻¹; koff [16]: 0.000372 s⁻¹; Kd [12]: 1.45 nM; Kd [13]: 1.9 nM
